Results reported in patent US20230265215A1 (OMEROS, published 2023).

Key:
CFD = target: T1, CFD (human, UniProt P00746 26-253, limits assumed); assay: solid phase ELISA, immobilized protease, mean apparent KD of two lots
T1 construct: Species read from 'Recombinant human MASP-2 or C1r, C1s, CFD, MASP-1 and MASP-3'; also called factor D; complement factor D
Text: (§1) The apparent dissociation constant (KD) was estimated by nonlinear regression using a 4-parameter logistic model.
(§2) Fold selectivity calculated as KD(related serine protease)/mean KD(MASP-2).

MASP-3 = target: T2, MASP-3 (human, UniProt P48740-2 20-728, limits assumed); assay: as above
T2 construct: Species read from 'Recombinant human MASP-2 or C1r, C1s, CFD, MASP-1 and MASP-3'
T2 sequence (looked up): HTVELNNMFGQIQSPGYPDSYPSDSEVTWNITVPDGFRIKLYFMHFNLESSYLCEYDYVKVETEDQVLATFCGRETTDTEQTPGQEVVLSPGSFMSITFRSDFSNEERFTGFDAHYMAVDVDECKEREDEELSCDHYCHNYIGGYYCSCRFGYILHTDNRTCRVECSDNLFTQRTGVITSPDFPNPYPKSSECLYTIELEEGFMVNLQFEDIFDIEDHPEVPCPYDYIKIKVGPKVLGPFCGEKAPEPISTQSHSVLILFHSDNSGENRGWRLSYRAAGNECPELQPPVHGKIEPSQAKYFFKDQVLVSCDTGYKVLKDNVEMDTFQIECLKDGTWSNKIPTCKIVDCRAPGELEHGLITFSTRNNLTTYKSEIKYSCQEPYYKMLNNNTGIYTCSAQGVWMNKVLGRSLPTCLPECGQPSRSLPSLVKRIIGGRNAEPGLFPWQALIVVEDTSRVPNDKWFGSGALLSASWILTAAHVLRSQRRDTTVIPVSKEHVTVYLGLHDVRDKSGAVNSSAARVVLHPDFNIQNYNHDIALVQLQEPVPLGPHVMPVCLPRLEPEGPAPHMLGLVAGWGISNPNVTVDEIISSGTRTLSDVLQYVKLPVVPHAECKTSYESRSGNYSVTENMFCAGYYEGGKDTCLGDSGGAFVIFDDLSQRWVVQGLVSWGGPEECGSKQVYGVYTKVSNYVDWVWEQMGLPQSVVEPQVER
Text: as §1, §2

[1] = target: Recombinant human MASP-2 (specificity ELISA, Example 14) (human, UniProt O00187 16-686, limits assumed); assay: as above
Sequence of Recombinant human MASP-2 (specificity ELISA, Example 14) (O00187 16-686 limits assumed): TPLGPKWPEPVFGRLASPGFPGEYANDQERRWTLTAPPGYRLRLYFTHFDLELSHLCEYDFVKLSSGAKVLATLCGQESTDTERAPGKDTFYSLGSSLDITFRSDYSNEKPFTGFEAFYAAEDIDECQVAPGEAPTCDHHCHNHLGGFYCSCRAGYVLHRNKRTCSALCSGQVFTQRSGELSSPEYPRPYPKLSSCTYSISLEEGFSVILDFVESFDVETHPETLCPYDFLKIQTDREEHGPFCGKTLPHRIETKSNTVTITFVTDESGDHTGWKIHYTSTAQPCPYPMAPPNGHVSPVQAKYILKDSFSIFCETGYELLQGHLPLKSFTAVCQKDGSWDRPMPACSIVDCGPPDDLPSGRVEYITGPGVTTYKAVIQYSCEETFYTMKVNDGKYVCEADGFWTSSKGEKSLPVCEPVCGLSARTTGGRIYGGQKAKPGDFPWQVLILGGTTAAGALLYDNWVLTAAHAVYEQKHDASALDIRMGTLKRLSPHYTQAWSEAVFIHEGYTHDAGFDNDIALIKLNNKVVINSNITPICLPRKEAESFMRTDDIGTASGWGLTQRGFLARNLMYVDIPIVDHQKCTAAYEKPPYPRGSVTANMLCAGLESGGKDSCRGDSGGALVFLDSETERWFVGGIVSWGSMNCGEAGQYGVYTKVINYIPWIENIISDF
Text: as §1, §2

MASP-1 = target: T3, MASP-1 (human, UniProt P48740 20-699, limits assumed); assay: as above
T3 construct: Species read from 'Recombinant human MASP-2 or C1r, C1s, CFD, MASP-1 and MASP-3'
T3 sequence (looked up): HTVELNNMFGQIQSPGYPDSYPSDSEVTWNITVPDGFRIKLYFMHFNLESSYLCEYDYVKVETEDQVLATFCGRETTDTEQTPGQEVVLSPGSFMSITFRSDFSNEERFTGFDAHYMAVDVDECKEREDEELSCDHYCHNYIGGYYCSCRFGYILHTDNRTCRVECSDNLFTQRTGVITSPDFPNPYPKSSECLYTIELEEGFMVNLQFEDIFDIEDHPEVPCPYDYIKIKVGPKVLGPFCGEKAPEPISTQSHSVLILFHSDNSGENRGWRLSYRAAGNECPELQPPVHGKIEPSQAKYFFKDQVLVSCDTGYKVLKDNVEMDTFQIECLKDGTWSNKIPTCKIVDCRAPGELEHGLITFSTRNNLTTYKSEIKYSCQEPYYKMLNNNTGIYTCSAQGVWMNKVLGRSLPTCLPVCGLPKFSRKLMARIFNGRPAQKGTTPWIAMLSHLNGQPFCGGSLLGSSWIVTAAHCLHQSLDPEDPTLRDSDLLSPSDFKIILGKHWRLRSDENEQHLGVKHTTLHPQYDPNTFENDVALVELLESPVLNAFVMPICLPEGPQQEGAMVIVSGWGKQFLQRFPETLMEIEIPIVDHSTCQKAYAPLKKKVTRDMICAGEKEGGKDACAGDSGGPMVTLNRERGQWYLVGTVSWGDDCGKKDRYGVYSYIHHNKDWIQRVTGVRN
Text: as §1, §2

C1s = target: T4, C1s (human, UniProt P09871 16-688, limits assumed); assay: as above
T4 construct: Species read from 'Recombinant human MASP-2 or C1r, C1s, CFD, MASP-1 and MASP-3'
T4 sequence (looked up): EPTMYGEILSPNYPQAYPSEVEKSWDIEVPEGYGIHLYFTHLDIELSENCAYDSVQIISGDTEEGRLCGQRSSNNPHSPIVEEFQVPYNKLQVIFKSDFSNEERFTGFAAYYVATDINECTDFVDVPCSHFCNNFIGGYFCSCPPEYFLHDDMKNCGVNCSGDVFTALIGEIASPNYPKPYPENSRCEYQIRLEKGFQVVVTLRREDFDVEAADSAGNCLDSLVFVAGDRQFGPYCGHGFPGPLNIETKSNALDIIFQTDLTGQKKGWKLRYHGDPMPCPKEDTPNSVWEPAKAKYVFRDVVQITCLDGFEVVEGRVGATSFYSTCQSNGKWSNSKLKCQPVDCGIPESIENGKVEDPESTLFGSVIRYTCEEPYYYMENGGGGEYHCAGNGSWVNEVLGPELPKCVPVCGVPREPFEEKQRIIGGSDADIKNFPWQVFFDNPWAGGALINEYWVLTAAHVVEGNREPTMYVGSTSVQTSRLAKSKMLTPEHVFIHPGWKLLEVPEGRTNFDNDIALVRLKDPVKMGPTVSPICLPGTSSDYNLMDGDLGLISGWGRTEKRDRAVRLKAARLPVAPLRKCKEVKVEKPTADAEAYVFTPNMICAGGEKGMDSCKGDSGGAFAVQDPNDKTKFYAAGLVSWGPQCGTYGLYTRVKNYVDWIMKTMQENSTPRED
Text: as §1, §2

[2] = target: Mouse MASP-2 CCP1/CCP2/SP (mouse, UniProt Q91WP0 287-685, limits assumed); assay: BLI (Octet RED96), OMS858 on anti-human Fc capture sensors, MASP-2 protein 1.6-50 nM
Sequence of Mouse MASP-2 CCP1/CCP2/SP (Q91WP0 other isoform, or with tags, fused parts or gaps limits assumed): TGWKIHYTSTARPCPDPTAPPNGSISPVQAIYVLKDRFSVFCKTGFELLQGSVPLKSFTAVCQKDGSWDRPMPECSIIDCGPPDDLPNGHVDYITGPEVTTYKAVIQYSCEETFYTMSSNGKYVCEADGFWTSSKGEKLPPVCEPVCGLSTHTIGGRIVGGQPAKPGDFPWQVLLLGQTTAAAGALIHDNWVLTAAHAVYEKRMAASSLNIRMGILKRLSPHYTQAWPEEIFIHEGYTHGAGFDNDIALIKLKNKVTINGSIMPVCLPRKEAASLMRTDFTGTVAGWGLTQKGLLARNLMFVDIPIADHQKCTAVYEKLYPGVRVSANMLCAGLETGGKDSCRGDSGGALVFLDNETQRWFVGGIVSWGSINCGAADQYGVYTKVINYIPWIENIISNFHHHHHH
Protocol: (§3) All measurements were conducted with the Octet RED96 system (ForteBio) using PBS containing 1% BSA and 0.02% Tween 20 as assay buffer. […] After one step of baseline, the captured sensors were submerged into wells containing different concentrations of the target proteins (1.6-50 nM) for the association step (120 sec), and then transferred to empty wells for the dissociation step (200 sec). In all experiments, the captured sensor was also dipped in a well containing no analyte to allow single reference subtraction to compensate for the natural dissociation of the captured antibody. The recorded binding sensorgrams were analyzed with Octet data analysis software (ForteBio) to determine binding affinity (KD).

[3] = target: T5, Human MASP-2 CCP1/CCP2/SP H508Q 'dog-like' (human, UniProt O00187 287-686, limits assumed); assay: as above
T5 construct: also called dog-like variant of human MASP-2; MASP-2 H508Q
T5 sequence (O00187 other isoform, or with tags, fused parts or gaps H508Q H508Q limits assumed): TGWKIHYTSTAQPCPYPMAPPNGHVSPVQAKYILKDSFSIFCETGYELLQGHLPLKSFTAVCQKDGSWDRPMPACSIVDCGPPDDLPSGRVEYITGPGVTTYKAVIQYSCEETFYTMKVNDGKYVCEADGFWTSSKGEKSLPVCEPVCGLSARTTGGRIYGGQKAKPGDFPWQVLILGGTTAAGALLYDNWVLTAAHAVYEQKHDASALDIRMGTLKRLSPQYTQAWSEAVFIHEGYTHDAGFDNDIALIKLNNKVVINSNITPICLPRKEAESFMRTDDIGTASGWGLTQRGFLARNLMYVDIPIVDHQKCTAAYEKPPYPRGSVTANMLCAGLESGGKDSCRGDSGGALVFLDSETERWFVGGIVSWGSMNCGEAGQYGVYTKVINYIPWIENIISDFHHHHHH
Protocol: as §3

T1 sequence (P00746 26-253 limits assumed): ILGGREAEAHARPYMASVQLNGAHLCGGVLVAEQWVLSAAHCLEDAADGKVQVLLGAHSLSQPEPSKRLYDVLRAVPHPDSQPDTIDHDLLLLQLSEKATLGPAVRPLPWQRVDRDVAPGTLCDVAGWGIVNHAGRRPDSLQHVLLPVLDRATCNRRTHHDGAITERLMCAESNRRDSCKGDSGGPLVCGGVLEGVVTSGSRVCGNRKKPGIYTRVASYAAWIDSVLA

B1: mAb OMS858 (humanized anti-MASP-2 antibody) (antibody, V domains shown)
VH: QVQLVQSGAEVKKPGASVKVSCKASGYTFTNHHMHWLRQAPGQGLEWIGDIDASDSETHYIEKFKDRATLTIDKSSSTAYMELSSLRSEDTAVYYCARGDITTTLRYFDVWGQGTLVTVSS
VL: DIQLTQSPSSLSASVGDRVTITCSASSSVRYMYWYQQKPGKAPKLLIYDTSNLASGVPSRFSGSGSGTDNTLTISSLQPEDFATYYCQQWSSYPLTFGQGTKVEIKR
notes: also called antibody OMS858; biotinylated OMS858
Question: Which Kd (CFD) does the source give for B1 here?
Answer: > 100 µg/mL

Question: And the Kd (MASP-3)?
Answer: > 100 µg/mL

Question: And the Kd [1]?
Answer: 0.047 µg/mL

Question: And the Kd (MASP-1)?
Answer: > 100 µg/mL

Question: What about the Kd (C1s) of the same binder?
Answer: > 100 µg/mL

Question: What about the Kd [2] of the same binder?
Answer: 32.9 nM

Question: What about the Kd [3] of the same binder?
Answer: ~2000 nM
